Data from the DeepSol protein solubility set.

Experiment: soluble on expression in E. coli; label from the status in PepcDB or PDB records

Soluble on expression in E. coli, not soluble:
MGSDKIHHHHHHVKKQVPDKTELGRTRVLVVGDVMLDRYWFGAVERISPEAPVPVVRVTREEERLGGAANVALNVKSLGARATLLTVVGDDEPAHTLKRLLERDGIDTLLGSDPQLYTIVKLRVIGRSQQLIRIDFENQPDHEVLAEMLQDYETTLAEQDAVLFSDYGKGGLEHIPRMIELARRSGKPVLVDPKGSDYRRYAGASVITPNRAELAQVVGAWSSEAQLRERAQALRVELGLEALLLTRSEEGMTLFDARGDTSVPAQAREVFDVTGAGDTVIATMAAMIACGLSPREAMPLANRAGSIVVGKFGTASVSYDELFE
MGSDKIHHHHHHVLPHQNLSILIFFFTLDKDHFGNEMKNMYSHIIVGAGILGTSTAYHLAKQGANVLLVDRKEAGRATHVAAGIICPWMTQRRNKAWYRLANNGAHYYDKLIPELEALGETTTGYQKVGTIALHETSKIEKMQMIAENRFPEAPAIQRIERLTADQVRSMFPLIEFVEDALFVSGGARVDGRALRAAMERGAIKHAATILEADASLVVVDGHVQGVQIGQDIHYADQVILTAGVWVNELLEPLQTKLDIRAEKGQILHLDISNDQSKEWPVIMGQRGLYLVSIEDGKLALGSTHEKQLDYNLQPTVKGMYALLTRAIPVAPALEEANINEMRVGLRPYTSNSLPVIGRLANHPNVLIANGLGASGLTIGPYLGQELAKLALDQELEIDLNDYLLQ
MGSDKIHHHHHHVPSACRLSTCRFQDVCLSQIAAYWPARFTRTSEGVGKMAEMVTIKEADLIESVADALQYISYFHPMDYIRALGEAYKAEQGPAAKDAIAQILTNSRMCAEGHRPICQDTGIVNVFIEWGQDCRLESDLSLQDVVDEGVRRAYNNPDNKLRASVLADPAFTRRNTRDNTPCVLHVEMVKGNKVTVDVAAKGGGSENKSKFKMMNPSDSIVDWVIEMLPQMGAGWCPPGMLGIGIGGTAEHCVLLAKKALMEPIDMAQLKQRGPQTDIERLRIEIFDKVNALGIGAQGLGGLSTILDVKIMDAPCHAAGKPVAMIPNCAATRHAHFTLDGSGPTFLERPKLDEWPEVHWAPDSAARRVDLDTLTQEEVQSWKAGDRLLLNGKMLTGRDAAHKRIKDMLAKGEELPVDFKGRVIYYVGPVDPVRDEVVGPAGPTTATRMDSFSDTMLDLGLLASVGKAERGPAATQSIANHKSAYLMAVGGAAYLVARAIKEAKVVGFEDLGMEAIYEFTVEDMPVTVAVDSGGQNVHQLAPLVWKKKIAEEHLLPA
MGSDKIHHHHHHVQLSENVLLLGNRHFNYFLVGKKEAAIIECGVSGGVYSFQKQWEKLPQKPEVKYLVAMHAHFDHVCGIPALQKMFPAAVLLASSPAEAVLKKAKIMENFFAQDEKMLDLLADEGIIPRGLQSPNVTEIALDKLIAEGDEIKLGGDLNIKVLDAPGHSPCSLACYLPAEQVMFISDACGFQISDEDIFPVFFQAYDIYLETIKRLMSYPSKLLAIPHERIWTGRNIDAFYRRALSSAEQAFNIIRDLLDQGWEDEKIEKELFARYYKGSLKIYTPENIQQCVQILLRRVKEKL
MGSDKIHHHHHHVTILSPKAVPAPAASDAYGFGDRLTADFPSQINVDVTEVCNLACVHCPHPQFKKSVHYAGRMLDPALNDKMVEEVRDHGQGRVGYIRYTAAGEPMAHPAIFPMLAKAVARSGTTVSLTTNGMLLDEGRRARLLETGIHLIDISIDAFLPETYARVRVGGDLERVRGGVLRLMEGAARRVDPPKIVVSFVEQPFNQGETADFERFWKENGAAYVVIRRLHSCAGAAQDLAATLRVEQGETRRPCLYPWERIVLNPSGQLSFCPADWAHGAAIAEYRDTTIREVWQGPFYRALREAHLTNSYANHGFCGQCPDWASTRWPKQGRSYADMVQDFKETE
MGSDKIHHHHHHVTVSAFVLLLCRRAIVTLDSTPAFSTDPELICFSSRFQDEMEMYAPAEVVAHYLDRHEEWFRRCAEPMATTSIGKDAYAIVLGRYGSLGFEVEPQIGLELLPADQGVYRICTVPVPGYESQGYQVDFQASLSLDRLTHETEAPVTEATAVAWDLLLTVGIRLPRFIHVLPQKLVHSTGDHLLRQIVRQTSRRLTHRVQEDFHQQLNLPLPPRRHARF
